[ ]: non-standard residue; d: D form. The star is where a group is joined. Butanoyl(4-Ph) = O=C(CCCc1ccccc1)*; Butanoyl(4-ethynyl) = C#CCCCC(=O)*
Molecular target: T1, ligand 5 on uncrosslinked micelles, 5% loading (5-UXL) (not fully specified; also: uncrosslinked micelle)
T1 chain: {Butanoyl(4-Ph)}-H[dF]RWGK(Butanoyl(4-ethynyl))-NH2
Test: Eu-NDP-α-MSH time-resolved fluorescence whole-cell competition binding

Ki: 12 nM
B1: Melanocortin 1 receptor (protein)
chain: MAVQGSQRRLLGSLNSTPTAIPQLGLAANQTGARCLEVSISDGLFLSLGLVSLVENALVVATIAKNRNLHSPMYCFICCLALSDLLVSGSNVLETAVILLLEAGALVARAAVLQQLDNVIDVITCSSMLSSLCFLGAIAVDRYISIFYALRYHSIVTLPRARRAVAAIWVASVVFSTLFIAYYDHVAVLLCLVVFFLAMLVLMAVLYVHMLARACQHAQGIARLHKRQRPVHQGFGLKGAVTLTILLGIFFLCWGPFFLHLTLIVLCPEHPTCGCIFKNFNLFLALIICNAIIDPLIYAFHSQELRRTLKEVLTCSW
